Here are results for 41 sequences from the nanobody polyreactivity screen of Harvey et al. (2022).

The data set can be described thus: yeast display, Sf9 membrane polyspecificity reagent, FACS + sequencing; frameworks hold sequencing errors. The essentials:
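A nanobody's polyreactivity label depends on the gate it was sorted from. Yeast display cells were stained with 10% biotinylated, detergent-solubilized Sf9 membrane reagent for 1 hour at 4 °C, enriched on streptavidin microbeads and sorted by FACS. The low and high (top ~1%) gates were set on anti-HA fluorescence for expression and streptavidin fluorescence for reagent binding.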
For the sequence “QVQLVESVGGLVQAGGSLRLSCAASGRIFGVYAMGWYRQAPGKERELVAAISEGGGSTNYADSVKGRFTISRDNAKNTVYLQMNSLKPEDTAVYYCAATYRTGVRRYYSWGQGTQVTVSS”, the “polyreactivity (PSR sort gate)” value is listed as “low polyreactivity”.
For the sequence “QVQLVESVGGLVQAGGSLRLSCAASGRIFLIYSMGWYRQAPGKERELVADISKGGSSTYYADSVKGRFTISRDNAKNTVYLQMNSLKPEDSAVYYCAASGRWTGRQAAYDYWGQGTQVTVSS”, the “polyreactivity (PSR sort gate)” value was “high polyreactivity”.
As for “QVQLVESVGGLVQAGGSLRLSCAASGRIFLWYAMGWYRQAPGKERELVAAISGSGGSTSYADSVKGRITISRDNAKNTVYLQMNSLKPEDTAVYYCAALYRTWARYKVYYWGQGTQVTVSS”, the “polyreactivity (PSR sort gate)” value is on record as “high polyreactivity”.
The same measure for “QVQLVESVGGLVQAGGSLRLSCAASGRIFSVNAMGWYRQAPGKERELVAAITTRGGTTYYADSVKGRFTISRDNAKNTVYLQMNSLKPEDTAVYYCAAESSWYVYWEWAHDYWGQGTQVTVSS”: “low polyreactivity”; for “QVQLVESVGGLVQAGGSLRLSCAASGRIFSVYTMGWYRQAPGKERELVAAISSGASTNYADSVKGRFTISRDNAKNTVYLQMNSLKPEDTAVYYCNAQWYLRLGASKTWVDVDYWGQGTQVTVSS”: “low polyreactivity”; for “QVQLVESVGGLVQAGGSLRLSCAASGRISNDYAMGWYRQAPGKERELVATITFSGGDTYYADSVKGRFTISRDNAKNTVYLQMNSLKPEETAVYYCAASKWRSYSGVWWRLLFDYWGQGTQVTVSS”: “low polyreactivity”.
Consider “QVQLVESVGGLVQAGGSLRLSCAASGRTFDSNAMGWYRQAPGKERELVAAISYSGGSTYYADSVKGRFTISRDNAKNTVYLQMNSLKPEDTAVYYCNAGAVHKKPARDYWGQGTQVTVSS”, for which the “polyreactivity (PSR sort gate)” value was “low polyreactivity”.
In the case of “QVQLVESVGGLVQAGGSLRLSCAASGRTFGRYAMGWYRQAPGKERELVAGISRSGDSTHYADSVKGRFTISRDNAKNTVYLQMNSLKPEDTAVYYCNKETPTIGARKYEYWGQGTQVTVSS”, the “polyreactivity (PSR sort gate)” value is “low polyreactivity”.
On to “QVQLVESVGGLVQAGGSLRLSCAASGRTFRFYTMGWYRQAPGKERELVADISWTSGRTYYADSVKGRFTISRDNAKNTVYLQMKSLKPEDTAVYYCAAYFFSRYSLYDYWGQGTQVTVSS”, for which the “polyreactivity (PSR sort gate)” value is reported as “high polyreactivity”.
Turning to “QVQLVESVGGLVQAGGSLRLSCAASGRTFSGNAMGWYIQAPGKERELVAGISTSGGSTYYADSVKGRFTISRDNSKNTVYLQMNSLKPEDTAVYYCNARSRYRYYRSFGGDYWGQGTQVTVSS”, the “polyreactivity (PSR sort gate)” value is listed as “high polyreactivity”.
Turning to “QVQLVESVGGLVQAGGSLRLSCAASGRTFYTYAMGWYRQAPGKERELVAAISSSGSTYYADSVKGRFTISRDNAKKTVYLQMNSLKPEDTAVYYCNARTSRYRRGGDSWGQGTQVTVSS”, the “polyreactivity (PSR sort gate)” value is given as “high polyreactivity”.
The same measure for “QVQLVESVGGLVQAGGSLRLSCAASGRTIVSNAMGWYRQAPGKERELVAAITRGSRTYYADSVKGRFTISRDNAKNTVYLQMNSLKPEDTAVYYCNARHVRYPFTGNYWGQGTQVTVSS”: “high polyreactivity”; for “QVQLVESVGGLVQAGGSLRLSCAASGRTVGGNAMGWYRQAPGKERELVAAINRSGGTTYYADSVKGRFTISRDNAKNTVYLQMNSLKPEDTAVYYCAARRTVSATRMGYWGQGTQVTVSS”: “high polyreactivity”; for “QVQLVESVGGLVQAGGSLRLSCAASGSIFGPNAMGWYRQAPGKERELVAAISLSTGSTYYADSVKGRFTISRDTAKNTVYLQMNSLKPEDTAVYYCAAYYVTPIYYYWGQGTQVTVSS”: “low polyreactivity”.
In the case of “QVQLVESVGGLVQAGGSLRLSCAASGSIFGTYAMGWYRQAPGKERELVAAISWRGGTYYADSVKGRFTISRDNAKNTVYLQMNSLKPEDTAVYYCNKLYTHRALGRLDYWGQGTQVTVSS”, the “polyreactivity (PSR sort gate)” value is “high polyreactivity”.
Under “QVQLVESVGGLVQAGGSLRLSCAASGSIFGVYVMGWYRQAPGKERELVAAITRGASTNYADSVKGRFTISRDNAKNTVYLQMKSLKPEDTAVYYCAAEWWEEYGYYDDNDYWGQGTQVTVSS” stands “low polyreactivity”.
Under “QVQLVESVGGLVQAGGSLRLSCAASGSIFITYAMGWYRQAPGKVRELVAAIRDSGDRTYYADSVKGRFTISRDNAKNTVYLQMNSLKPEDTAVYYCNARWQEPLKYDYWGQGTQVTVSS” stands “low polyreactivity”; under “QVQLVESVGGLVQAGGSLRLSCAASGSIFTHNTMGWYRQAPGKERELVASIDSGASTNYADSVKGRFTISRDNAKNTVYLQMNSLKPEDTAVYYCAARDYDWGYPYYYWGQGTQVTVSS”, “low polyreactivity”.
Regarding “QVQLVESVGGLVQAGGSLRLSCAASGSIFVNNAMGWYRQAPGKERELVAAISRSGGSTYYADSVKGRFTISRDNAKNTVYLQMNSLKPEDTAVYYCATVHRSSTPPEFNYWGQGTQVTVSS”, the “polyreactivity (PSR sort gate)” value is on record as “high polyreactivity”.
The same measure for “QVQLVESVGGLVQAGGSLRLSCAASGSIFVTNALGWYRQAPGKERELVAAISSGGNTNYADSVKGRFTISRDNAKNTVYLQMNSLKPEDTAVYDCAKDPDKVDYVDMDYWGQGTQVTVSS”: “low polyreactivity”; for “QVQLVESVGGLVQAGGSLRLSCAASGSIFYDNGMGWYRQAPGNERELVAAISRGGTTNYADSVKGRFTISRDKAKNTVYLQMNSLKPEDTAVYYCNAETRFTYWGSWYDYWGQGTQVTVSS”: “low polyreactivity”.
With “QVQLVESVGGLVQAGGSLRLSCAASGSIFYPYAMGWYRQAPGKERELVAAIRNGRSTYYADSVKGRFTISRDNAKNTVYLKMNSLKPEDTAVYYCAASVRRRHPFEYWGQGTQVTVSS”, the “polyreactivity (PSR sort gate)” value is reported as “high polyreactivity”.
On to “QVQLVESVGGLVQAGGSLRLSCAASGSILAVNAMGWYRQAPGKERELVAAISSRGGSTSYADSVKGRYTISRDNAKNTVYLQMNSLKPEDTAVYYCAVRAVRRLRTSVPVRFYYWGQGTQVTVSS”, for which the “polyreactivity (PSR sort gate)” value was “high polyreactivity”.
The same measure for “QVQLVESVGGLVQAGGSLRLSCAASGSILVSYAMGWSRQAPGKERELGPAITQGGGSTYYADCVKGRFTFSRDNAKNTVYLQMNSLKPEDTAVYYCSVDGLSDDRYSAGGDYWGQGTQVTVSS”: “low polyreactivity”; for “QVQLVESVGGLVQAGGSLRLSCAASGSNFPPYAMGWYRQAPGKERELVAAITSTDSTDYADSVKGRFTISRDNAKNTVYLQMNSLKPEDTAVYYCAAATGTYGRGGYYWGQGTQVTVSS”: “high polyreactivity”.
As for “QVQLVESVGGLVQAGGSLRLSCAASGSTFDKYAMGWYRQAPGKERELVATISQSGASTYYADSVKGRFTISRDNAKNTVYLQMNSLKPEDTAVYYCAARSSTRVWYWGRYYYWGQGTQVTVSS”, the “polyreactivity (PSR sort gate)” value is reported as “high polyreactivity”.
The same measure for “QVQLVESVGGLVQAGGSLRLSCAASGSTFGRNAMGWYRQAPGKERELVAAISSRGGGTYYADSVKGRFTISRDNAKNTVYLQMNSLKPEDTAVYYCAATYGYRRRNHYNYWGQGTQVTVSS”: “high polyreactivity”; for “QVQLVESVGGLVQAGGSLRLSCAASGSTFQSNGMGWYRQAPGKERELVAAITSTDASTSYADSVKGRFTISRDNAKITVYLQMNSLKPEDTAVYYCAADFPVASGAELDYWGQGTQVTVSS”: “low polyreactivity”; for “QVQLVESVGGLVQAGGSLRLSCAASGSTFYANAMGWYRQAPGKERELVAAITWGDASTYYADSVKGRFTISRDNAKNTVYLQMNSLKPEDTAVYYCAVDESYGSSSDMDYWGQGTQVTVSS”: “low polyreactivity”.
Under “QVQLVESVGGLVQAGGSLRLSCAASGSTSRIYAIGRYRKAPGKEREWVAAISRSGGSTYYADSVKGRFTISRDNAKNTVYLQMNSLKPEDTAVYYCAKDASKETSGGDYWGQGTQVTVSS” stands “high polyreactivity”; under “QVQLVESVGGLVQAGGSLRLSCAASGYIFYGYAMGWYRQAPGKEREFVAAITVRGGSTYYADSVKGRFTISRDNAKNTVYLQMNSEKPEDTAVYYCAAAPQFTFGVGYWGQGTQVTVSS”, “low polyreactivity”.
The same measure for “QVQLVESVGGLVQAGGSLRLSCAASVFNLKSNAMGWYRQATGKERELVAAISSSGGSTYYADSVKGRFTISRDNAKNTVYLQMNSLKPEDTAVYYCNVAQYLRARRPVDYWGHGTQVTVSS”: “high polyreactivity”; for “QVQLVESVGGLVQAGGSLRLSCAATGSTFGVNDMGWYRQSPGKERQFVADITTSGGSTYYADSVKWRFTISRDIAKNTVYLQMNSLKPEDTAVYYCAADLWPFEHDDYWGQGTQVTVSS”: “low polyreactivity”.
On to “QVQLVESVGGLVQAGGSLRLSCAGSGFTFLYYAMGWYRQAPGKERELVDTISKSGGSTYYADSVKGRFTISRDNAKNTDYLQMNSLKPEDTAVDYFAAVGPYRWYDYWGQGTQVTVSS”, for which the “polyreactivity (PSR sort gate)” value is “high polyreactivity”.
Under “QVQLVESVGGLVQAGGSLRLSCPTSGRIFTYYAMGWYRQAPGKERELVAAINSRGGSTYYADSVKGRFTISRDNAKNTVYLQMNSLKPEDSAVYYCAAVGLYSRYAYWGQGTQVSVSS” stands “high polyreactivity”; under “QVQLVESVGGLVQAGGSLRLSSAASGFTFTHYAMGWYRQAPGKERELVAAISTSGGSTYYADSVKGRFTISRDNAKNTVYLQMNSLKPEDTAVYYCAARRDGWVQWGYYYWGQGTQVTVSS”, “low polyreactivity”.
“QVQLVESVGGLVQAGGSLRLSSAASGYIFFGNAMGWYRQAPGKERELVAAIRWRGTSTYYADSVKGRFTISRDNAKNTVYLQMNSLKPEDTAVYYCAKDGRVHSPYDYWGQGTQVTVSS”: the “polyreactivity (PSR sort gate)” value is on record as “low polyreactivity”.
Under “QVQLVESVGGLVQAGGSLRLTCAASGRIFEINTMGWYRQAPGKERELVAAISRGGGSTYYADSVKGRFTISRDNAKNTVYLQMNSLKPEDTAVYYCAAASYYVEGDYWGQGTQVTVSS” stands “low polyreactivity”.
Consider “QVQLVESVGGLVQAGGTRRLSCDASGRTFGLNVMGWYRHAPGKERELVASIRNIGGSTYYADSVKWRFTISCDNAKNTVYLQMNSLKPEDTAVYYCAADYNLVVQGYDYWGQGTQVTVSS”, for which the “polyreactivity (PSR sort gate)” value is “high polyreactivity”.
The same measure for “QVQLVESVGGLVQAGRILRISCAASGFTLYYYDKGWYRQAPGKQRELVAGISSGDSTYYADSLKGRFTISRDNAKNTVYLHMNSLKPEDTAVYYCATGDSLYYRYWSNNYWGQGTQVTVSS”: “high polyreactivity”; for “QVQLVESVGGLVQAGRSLRLSCAASGSIFLRNAMGWYRQPPGKERELVASITWNGASTSYADSVKGRFTISRDNAKNTVYLQMNSLKPEDTAVYYCAAVTVQDSNLKYGYWGQGTQVTVSS”: “low polyreactivity”.
